IntAct's records for PubMed 17254968

B1: Cellular tumor antigen p53 (Mus musculus), P02340 (parent)
chain: MTAMEESQSDISLELPLSQETFSGLWKLLPPEDILPSPHCMDDLLLPQDVEEFFEGPSEALRVSGAPAAQDPVTETPGPVAPAPATPWPLSSFVPSQKTYQGNYGFHLGFLQSGTAKSVMCTYSPPLNKLFCQLAKTCPVQLWVSATPPAGSRVRAMAIYKKSQHMTEVVRRCPHHERCSDGDGLAPPQHLIRVEGNLYPEYLEDRQTFRHSVVVPYEPPEAGSEYTTIHYKYMCNSSCMGGMNRRPILTIITLEDSSGNLLGRDSFEVRVCACPGRDRRTEEENFRKKEVLCPELPPGSAKRALPTCTSASPPQKKKPLDGEYFTLKIRGRKRFEMFRELNEALELKDAHATEESGDSRAHSSYLKTKKGQSTSRHKKTMVKKVGPDSD

Variants of: B1
Details: with mapk5_mouse Mapkapk5, O54992
Sequence of mapk5_mouse Mapkapk5, O54992 (O54992 whole entry): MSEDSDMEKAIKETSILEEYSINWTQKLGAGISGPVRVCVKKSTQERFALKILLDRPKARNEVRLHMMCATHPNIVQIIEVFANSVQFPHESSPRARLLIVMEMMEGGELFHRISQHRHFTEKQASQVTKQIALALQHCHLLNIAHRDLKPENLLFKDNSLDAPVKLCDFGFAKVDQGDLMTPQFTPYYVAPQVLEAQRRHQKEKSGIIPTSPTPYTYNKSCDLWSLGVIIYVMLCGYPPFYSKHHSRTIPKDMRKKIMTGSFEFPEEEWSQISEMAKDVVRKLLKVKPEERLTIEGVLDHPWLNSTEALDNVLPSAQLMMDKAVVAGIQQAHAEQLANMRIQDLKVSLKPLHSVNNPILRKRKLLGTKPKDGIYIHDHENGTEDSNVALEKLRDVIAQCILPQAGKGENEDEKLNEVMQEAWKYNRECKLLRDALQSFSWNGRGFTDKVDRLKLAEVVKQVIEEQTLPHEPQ

**Q.** MTAMEESQSDISLELPLSQETFSGLWKLLPPEDILPDPHCMDDLLLPQDVEEFFEGPSEALRVSGAPAAQDPVTETPGPVAPAPATPWPLSSFVPSQKTYQGNYGFHLGFLQSGTAKSVMCTYSPPLNKLFCQLAKTCPVQLWVSATPPAGSRVRAMAIYKKSQHMTEVVRRCPHHERCSDGDGLAPPQHLIRVEGNLYPEYLEDRQTFRHSVVVPYEPPEAGSEYTTIHYKYMCNSSCMGGMNRRPILTIITLEDSSGNLLGRDSFEVRVCACPGRDRRTEEENFRKKEVLCPELPPGSAKRALPTCTSASPPQKKKPLDGEYFTLKIRGRKRFEMFRELNEALELKDAHATEESGDSRAHSSYLKTKKGQSTSRHKKTMVKKVGPDSD [S37D] was tested. Which “effect of a mutation on the interaction” value did it give?
**A.** disrupting interaction
